For 22 molecules, optical density results are on record in patent publication US20210380703A1 (RIGEL PHARMACEUTICALS, published 2021).

Residue numbers refer to the chain shown, from its start.

Sequences and labels used below:
B1: 367_B04 (antibody, V domains shown)
VH: EVQLLESGGGLVQPGGSLRLSCAASGFTFDSYSMNWVRQAPGKGLEWVSGINYNSGYKSYADSVKGRFTISRDNSKNTLYLQMNSLRAEDTAVYYCARGANWHDTHLDYWGQGTLVTVSS
VL: DIQMTQSPSSLSASVGDRVTITCRASQSILSYLNWYQQKPGKAPKLLIYAATSRASGVPSRFSGSGSGTDFTLTISSLQPEDFATYYCQQSYELPLTFGGGTKVEIK
notes: Group III
B2: 367_H03 (antibody, V domains shown)
VH: B1 VH with D30S, S33G, S49A, K58T
VL: B1 VL with L30I, S31T, L33V, R54L, E93D
notes: Group III
B3: 367_B12 (antibody, V domains shown)
VH: B1 VH with D30S, S33G, N35H, S49A, G50S, S55G
VL: B1 VL with L33V, L47V, R54L, E93D, L94T
notes: Group III
B4: 368_F09 (antibody, V domains shown)
VH: B1 VH with D30S, S33G, K58T
VL: B1 VL with S31T, T52S, R54L, A55Q, L94T
notes: Group III
B5: 367_D06 (antibody, V domains shown)
VH: B1 VH with S49A, S55G, K58T
VL: B1 VL with L30S, S31T, L47V, R54L, E93N, L94S
notes: Group III
B6: 367_D12 (antibody, V domains shown)
VH: B1 VH with D30S, G50S, S55G, K58T, S59G
VL: B1 VL with L30V, L33V, L47V, L94S
notes: Group III
B7: 367_H02 (antibody, V domains shown)
VH: B1 VH with S33G, G50S, S55G, K58T, S59G
VL: not shown
notes: Group III
B8: 368_C08 (antibody, V domains shown)
VH: B1 VH with D30S, S31D, S55G, K58T
VL: B1 VL with S31T, L33V, T52S, R54L, A55Q, E93S, L94T
notes: Group III
B9: 367_C10 (antibody, V domains shown)
VH: B1 VH with S55G, K58T, H106A
VL: B1 VL with L30V, L33V, A51V, L94T
notes: Group III
B10: 367_E05 (antibody, V domains shown)
VH: B1 VH with D30S, S33G, S49A, S55G, K58T
VL: B1 VL with A55H, E93D, L94S
notes: Group III
B11: 368_B09 (antibody, V domains shown)
VH: B1 VH with S33G, G50N, S55G, S59G
VL: B1 VL with A55H, E93D, L94T
notes: Group III
B12: 368_H05 (antibody, V domains shown)
VH: B1 VH with D30S, S49A, G50N, S55G
VL: B1 VL with L30V, L33V, L47V, A51T, L94S
notes: Group III
B13: 367_C07 (antibody, V domains shown)
VH: B1 VH with D30S, G50S, K58T, S59G
VL: B1 VL with S31T, L33V, E93N
notes: Group III
B14: 367_D08 (antibody, V domains shown)
VH: B1 VH with D30S, S31D, S49A, S55G, K58T
VL: B1 VL with L47V, A55H, Y92D, E93D
notes: Group III
B15: 367_D03 (antibody, V domains shown)
VH: B1 VH with G50S, S55G, K58T, S59G
VL: B1 VL with L30I, S31T, E93D, L94T
notes: Group III
B16: 368_A04 (antibody, V domains shown)
VH: B1 VH with S31D, S49A, S55G
VL: B1 VL with S31T, L47V, A51V
notes: Group III
B17: 367_G01 (antibody, V domains shown)
VH: B1 VH with S33G, S49A, G50S, K58T, S59G
VL: B1 VL with L30S, L47V, E93D
notes: Group III
B18: 368_E12 (antibody, V domains shown)
VH: B1 VH with D30S, S31D, S33G, S49A, S55G, K58T
VL: B1 VL with L30V, L33V, L47V, A51V, E93D, L94S
notes: Group III
B19: 368_A03 (antibody, V domains shown)
VH: B1 VH with D30S, S55G, K58T, S59G
VL: B1 VL with L30I, A51V, L94N
notes: Group III
B20: 368_H02 (antibody, V domains shown)
VH: B1 VH with D30S, S33G, S49A, K58T, H106A
VL: B1 VL with L30V, S31T, L47V, L94S
notes: Group III
B21: 367_F01 (antibody, V domains shown)
VH: B1 VH with G50N, S55G
VL: not shown
notes: Group III
B22: 367_G04 (antibody, V domains shown)
VH: B1 VH with D30S, S49A, K58T
VL: B1 VL with L47V, E93D, L94S
notes: Group III
Also: test concentration or dose not given here.

T2 sequence (P27038 20-135 limits assumed): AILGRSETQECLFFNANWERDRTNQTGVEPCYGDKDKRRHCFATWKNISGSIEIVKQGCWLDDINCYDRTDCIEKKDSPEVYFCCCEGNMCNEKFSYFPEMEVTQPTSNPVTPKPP
T3 sequence (P27037 20-135 limits assumed): as the sequence (P27038 20-135 limits assumed) above, with R20K, I73V counted along it

The target of one assay is T1, biotinylated goat anti-human kappa light chain.
T1 construct: positive control of the ELISA
Description: ELISA, positive control. The protocol:
The binding of ACVR2A-specific monoclonal antibodies to human ACVR2A, mouse ACVR2A, biotinylated goat anti-human kappa light chain (positive control) and human Fc (negative control) were determined by ELISA.
(An ELISA detects its analyte on a solid surface through an enzyme-linked reagent.)
For B1, the optical density turned out to be 3.34 OD.
Still for that read-out and setting: next, B2: 3.34 OD.
B3 yielded an optical density of 3.75 OD.
With B4, the optical density was determined as 3.58 OD.
On the same count and under the same terms, the figure for B5 is 3.25 OD; for B6 it is 3.57 OD; for B7 it is 3.62 OD.
In the case of B8, the optical density turned out to be 3.38 OD.
On the same count and under the same terms, the figure for B9 is 3.39 OD; for B10 it is 3.47 OD; for B11 it is 3.43 OD.
Molecule B12 yielded an optical density of 3.34 OD.
Still for that read-out and setting: the figure for B13 is 3.41 OD; for B14 it is 3.5 OD; for B15 it is 3.46 OD.
The same measure, in the same setting: the figure for B16 is 3.56 OD.
Still for that read-out and setting: the figure for B17 is 3.58 OD; for B18 it is 3.65 OD.
B19 gave an optical density of 3.41 OD.
On the same count and under the same terms, next, B20: 3.58 OD; B21: 3.72 OD.
Still for that read-out and setting: next, B22: 3.36 OD.

A further assay addresses T2, mouse ACVR2A (mouse, UniProt P27038 20-135, limits assumed).
T2 construct: coated antigen of the initial ELISA
Briefly: ELISA. The procedure, abridged:
(§1)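 Binding signal was read by ELISA after ACVR2A-specific monoclonal antibodies were tested against human ACVR2A and mouse ACVR2A, with human Fc as the negative control.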
B1 registered an optical density of 3.1 OD.
Same read-out and setting: next, B2: 2.2 OD; B3: 3.03 OD.
Still for that read-out and setting: the figure for B4 is 2.45 OD; for B5 it is 2.35 OD; for B6 it is 2.69 OD.
Still for that read-out and setting: the figure for B7 is 1.2 OD; for B8 it is 2.43 OD.
The molecule B9 registered an optical density of 2.61 OD.
Molecule B10 showed an optical density of 2.64 OD.
Same read-out and setting: the figure for B11 is 2.81 OD; for B12 it is 2.2 OD; for B13 it is 2.52 OD.
The same measure, in the same setting: the figure for B14 is 2.37 OD; for B15 it is 2.45 OD.
On to B16, for which the optical density worked out at 2.35 OD.
On the same count and under the same terms, the figure for B17 is 1.94 OD; for B18 it is 1.55 OD.
Still for that read-out and setting: next, B19: 2.83 OD; B20: 2.54 OD.
The same measure, in the same setting: the figure for B21 is 2.76 OD.
With B22, the optical density was determined as 3.04 OD.

A further assay concerns the target T3, human ACVR2A (human, UniProt P27037 20-135, limits assumed).
T3 construct: coated antigen of the initial ELISA; also called activin receptor, type II A
Briefly: ELISA. The procedure, abridged: as §1
As for B1, the optical density came out at 2.66 OD.
The same measure, in the same setting: the figure for B2 is 2.04 OD; for B3 it is 3.02 OD.
Still for that read-out and setting: the figure for B4 is 2.39 OD; for B5 it is 2.04 OD; for B6 it is 2.44 OD.
On the same count and under the same terms, the figure for B7 is 1.08 OD.
B8 displayed an optical density of 2.26 OD.
On the same count and under the same terms, next, B9: 2.53 OD.
The same measure, in the same setting: the figure for B10 is 2.35 OD; for B11 it is 2.54 OD.
Still for that read-out and setting: the figure for B12 is 1.95 OD; for B13 it is 2.47 OD.
Regarding B14, the optical density was found to be 2.18 OD.
With B15, the optical density was 2.59 OD.
The same measure, in the same setting: the figure for B16 is 2.35 OD; for B17 it is 1.8 OD; for B18 it is 1.29 OD.
The same measure, in the same setting: next, B19: 2.83 OD; B20: 2.41 OD; B21: 2.42 OD.
The same measure, in the same setting: next, B22: 2.98 OD.
